From article PMC5960627
Where two headings read alike, the source gives them in different places.

Columns and labels:
Assay in all cases: other fluorescence titration
[1] = target: BSAT1R_(309-327), FRET biosensor with AT1R a.a. 309-327 (SMD4JM) between EYFPc and ECFP (human)
[2] = target: BSAT1R_(125-141), FRET biosensor with AT1R a.a. 125-141 (SMD2) between EYFPc and ECFP (human)
[3] = target: BSAT1R_(125-141mut), FRET biosensor with mutant AT1R a.a. 125-141 (SMD2) between EYFPc and ECFP (human)
[4] = target: BSAT1R_(309-327mut), FRET biosensor with mutant AT1R a.a. 309-327 (SMD4JM) between EYFPc and ECFP (human)
[5] = target: BSAT1R_(309-327), FRET biosensor with AT1R a.a. 309-327 (SMD4JM) between EYFPc and ECFP (human); remark: listed apart in the source
[6] = target: BSAT1R_(215-242mut), FRET biosensor with mutant AT1R a.a. 215-242 (SMD3) between EYFPc and ECFP (human)
[7] = target: BSAT1R_(215-242), FRET biosensor with AT1R a.a. 215-242 (entire SMD3) between EYFPc and ECFP (human)
BSAT1R_(215-242), FRET biosensor with AT1R a.a. 215-242 (entire SMD3) between EYFPc and ECFP (human), sequence (P30556 215-242): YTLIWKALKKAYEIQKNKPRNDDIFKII

[8] = target: BSAT1R_(215-232), FRET biosensor with AT1R a.a. 215-232 (part of SMD3) between EYFPc and ECFP (human)

What does the source list for “Calmodulin (from UniProt P0DP23 1-149) (natural protein)”?
EC50(Ca2+) of the interaction, species Sp2 [1]: 3.18 µM; EC50(Ca2+) of the interaction [2]: 4.1 µM; EC50(Ca2+) of the interaction [3]: 17.6 µM; EC50(Ca2+) of the interaction, species Sp1mut [4]: 0.77 µM; EC50(Ca2+) of the interaction, species Sp2mut [4]: 9.6 µM; EC50(Ca2+) of the interaction, species Sp1 [5]: 0.31 µM; EC50(Ca2+) of the interaction, species Sp2 [5]: 3.17 µM; EC50(Ca2+) of the interaction [6]: 1.49 µM; EC50(Ca2+) of the interaction [7]: 0.15 µM; EC50(Ca2+) of the interaction [8]: 0.3 µM
